These results are taken from IntAct's records for PubMed 21391237.

To fix the notation:
B1: Transmembrane protein 43 (Homo sapiens), Q9BTV4 (parent)
chain: MAANYSSTSTRREHVKVKTSSQPGFLERLSETSGGMFVGLMAFLLSFYLIFTNEGRALKTATSLAEGLSLVVSPDSIHSVAPENEGRLVHIIGALRTSKLLSDPNYGVHLPAVKLRRHVEMYQWVETEESREYTEDGQVKKETRYSYNTEWRSEIINSKNFDREIGHKNPSAMAVESFMATAPFVQIGRFFLSSGLIDKVDNFKSLSLSKLEDPHVDIIRRGDFFYHSENPKYPEVGDLRVSFSYAGLSGDDPDLGPAHVVTVIARQRGDQLVPFSTKSGDTLLLLHHGDFSAEEVFHRELRSNSMKTWGLRAAGWMAMFMGLNLMTRILYTLVDWFPVFRDLVNIGLKAFAFCVATSLTLLTVAAGWLFYRPLWALLIAGLALVPILVARTRVPAKKLE
partner: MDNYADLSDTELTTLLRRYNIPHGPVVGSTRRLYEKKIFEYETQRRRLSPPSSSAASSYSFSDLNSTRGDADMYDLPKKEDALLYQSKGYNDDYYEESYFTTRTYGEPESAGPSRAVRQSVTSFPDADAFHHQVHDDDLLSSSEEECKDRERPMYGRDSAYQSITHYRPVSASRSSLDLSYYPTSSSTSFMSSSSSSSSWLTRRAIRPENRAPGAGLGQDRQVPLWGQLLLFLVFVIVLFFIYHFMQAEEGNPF
B2: Transmembrane protein 43 (Homo sapiens), Q9BTV4 (parent)
chain: B1 chain

The first test covers variants of B1. Conditions: with emd_human EMD.
For the variant E85K, the “effect of a mutation on the interaction” value was “with no effect”.
Consider I91V, for which the “effect of a mutation on the interaction” value is listed as “with no effect”.

In a further test the parent is B1. Conditions: with emd_human EMD. This is another data set of the same source.
For the variant E85K, the “effect of a mutation on the interaction” value is “decreasing interaction strength”.
The same measure, in the same setting: under I91V stands “decreasing interaction strength”.

Another test covers variants of B2. Conditions: with sun2_human SUN2, Q9UH99.
sun2_human SUN2, Q9UH99, sequence (Q9UH99 whole entry): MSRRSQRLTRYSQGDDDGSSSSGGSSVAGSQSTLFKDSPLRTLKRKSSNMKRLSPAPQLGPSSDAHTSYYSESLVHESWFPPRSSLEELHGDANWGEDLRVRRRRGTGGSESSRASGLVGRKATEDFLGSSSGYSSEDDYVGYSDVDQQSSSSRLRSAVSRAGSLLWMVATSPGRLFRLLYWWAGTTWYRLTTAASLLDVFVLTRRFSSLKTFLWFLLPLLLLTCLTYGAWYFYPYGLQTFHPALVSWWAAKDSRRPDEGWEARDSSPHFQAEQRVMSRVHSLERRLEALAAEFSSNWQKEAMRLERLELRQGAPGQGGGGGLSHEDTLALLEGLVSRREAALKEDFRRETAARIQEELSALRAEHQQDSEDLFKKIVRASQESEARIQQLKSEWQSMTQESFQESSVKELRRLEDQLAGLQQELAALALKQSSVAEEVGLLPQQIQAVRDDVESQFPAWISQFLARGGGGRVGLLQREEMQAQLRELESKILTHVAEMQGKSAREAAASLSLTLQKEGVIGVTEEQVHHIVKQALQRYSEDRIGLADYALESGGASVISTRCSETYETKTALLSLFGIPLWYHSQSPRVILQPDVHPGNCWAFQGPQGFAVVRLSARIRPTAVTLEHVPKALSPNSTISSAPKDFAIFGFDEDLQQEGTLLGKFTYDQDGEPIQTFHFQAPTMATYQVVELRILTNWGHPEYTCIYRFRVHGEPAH
With E85K, the “effect of a mutation on the interaction” value is recorded as “decreasing interaction strength”.
Still for that read-out and setting: under I91V stands “decreasing interaction strength”.
